# Test results published in patent publication US20240382561A1, “GLUCOREGULATORY COMPOUND, COMPOSITION AND USES THEREOF” (THE HONG KONG POLYTECHNIC UNIVERSITY, priority 2021, published 2024).
# B1: cysteine rich transmembrane module containing 1 (protein, UniProt Q9H1C7 1-97, looked up)
# Cysteine-rich and …: MNQENPPPYPGPGPTAPYPPYPPQPMGPGPMGGPYPPPQGYPYQGYPQYGWQGGPQEPPKTTVYVVEDQRRDELGPSTCLTACWTALCCCCLWDMLT
# notes: human CYSTM1, 97 amino acid long peptide
# B2: cysteine rich transmembrane module containing 1 (protein, UniProt Q8K353 1-104, looked up)
# Cysteine-rich and …: MNPENPPPYPGPGPTAPYPPYPQQPMGPMGPMGAPPPQGYPYPPPQGYPYQGYPQYGWQGGPQEPPKTTVYVVEDQRRDDLGPSTCLTACWTALCCCCLWDMLT
# notes: recombinant mouse CYSTM1 protein, 104 amino acid long glucoregulatory peptide
# Tests used:
# [1] = test system: db/db mice; assay: Acute glucose tolerance test after i.p. injection of human CYSTM1 in db/db mice; type: in vivo, mouse; settings: acute i.p. injection 1 mg/kg BW, vs PBS
# [2] = test system: MIN6 cells; assay: Insulin secretion from MIN6 cells at low and high glucose; type: cell-based, mouse; settings: CYSTM1 1-1000 nM, 5.6 mM or 16.7 mM glucose, 45 min
# Experimental: (§1) FIGS. 6A-6C show the change in insulin secretion from different pancreatic cells in a low (5.6 mM) and high (16.7 mM) glucose level treated by different concentrations of CYSTM1: FIG. 6A: MIN6 cells; FIG. 6B: β-TC-6 cells; FIG. 6C: mouse-isolated pancreatic islets (n=5-6 per cell type);
# (§2) In this example, in vitro assays of insulin secretion in response to CYSTM1 treatment in low and high-glucose environments on the pancreatic cell lines (MIN6 and B-TC-6) and mouse isolated pancreatic islets were performed. Mouse insulinoma, MIN6 cells, were cultured in DMEM (Gibco) supplemented with 10% (v/v) FBS (Lonza), 100 U/mL penicillin and […], and 70 μM freshly added β-mercaptoethanol (Gibco) (37° C., 5% CO2). B-TC-6 cells were grown in RPMI 1640 medium (Gibco) containing 5.5 mM glucose and supplemented with 10% (v/v) FBS, 100 U/mL penicillin and […], and 2 mM L-glutamine. […] Following 45 min incubation of KRB solution, each well was removed and the insulin content of each sample was determined by a mouse insulin ELISA kit. The efficacy of CYSTM1 to stimulate insulin secretion was evaluated in each of the pancreatic cell lines: MIN6 cells (FIG. 6A), B-TC-6 cells (FIG. 6B), and isolated pancreatic islet cells (FIG. 6C).
# [3] = test system: isolated pancreatic islet cells; assay: Insulin secretion from mouse isolated pancreatic islets; type: cell-based; settings: CYSTM1 1-1000 nM, 5.6 mM then 16.7 mM glucose, 45 min
# Experimental: as §1, §2
# [4] = test system: MIN6 pancreatic beta cell; assay: Insulin secretion in MIN6 cells with GLP-1R antagonist exendin (9-39); type: cell-based, mouse; settings: CYSTM1 10 nM, exendin (9-39) 10 nM
# [5] = test system: B-TC-6 cells; assay: Insulin secretion from B-TC-6 cells at low and high glucose; type: cell-based; settings: CYSTM1 1-1000 nM, 5.6 mM or 16.7 mM glucose, 45 min
# Experimental: as §1, §2
# [6] = test system: high fat diet-induced obese (HFD) mice; assay: Chronic daily oral gavage of CYSTM1 in high-fat diet-induced obese mice; type: in vivo, mouse
# Experimental: In this example, 8-week-old male C57BL/6J mice fed with a high-fat diet (HFD) were treated daily with an oral gavage of recombinant CYSTM1 protein (1 mg/kg), and the control group of mice were gavaged with saline daily. CYSTM1 treatment was carried out after 8 weeks of HFD feeding (FIG. 4A).
# [7] = test system: mouse primary adipocytes; assay: 2-NBDG glucose uptake in mouse primary adipocytes; type: cell-based; settings: mouse primary adipocytes, CYSTM1 1-1000 nM, 1 h
# Experimental: (§3) To determine whether CYSTM1 can increase glucose uptake in adipocytes, in vitro assays of 2-NBDG uptake in response to CYSTM1 treatment and potential inhibitors in 3T3-L1 adipocytes and mouse primary adipocytes were performed. 3T3-L1 preadipocytes were maintained in Dulbecco's modified Eagle's medium (DMEM) supplemented with 10% fetal bovine serum. Two days after confluence, 3T3-L1 cells were induced to differentiation using the standard adipogenic cocktail (0.5 mM IBMX, 1 μM dexamethasone and 10 μg/ml insulin) that was applied for 4 days and followed by 10 μg/ml insulin treatment for additional 4 days. The culture medium was changed every other day. The differentiated cells were maintained in normal serum containing DMEM. Mouse primary adipocytes were isolated from 10 to 12-week-old male C57BL/6J mice using a collagenase digestion protocol as described, briefly, white fat pads were removed, minced and digested using collagenase for 60-90 min at 37° C. in Krebs-Ringers phosphate HEPES buffer (KRPH) (15 mM HEPES, pH 7.4, 118 mM NaCl, 4.8 mM KCl, 1.2 mM MgSO4, 1.3 mM CaCl2, 1.2 mM KHPO3, 0.1% BSA). The stromal vascular fraction was separated from the adipocytes and cultured using DMEM and differentiated the same as 3T3-L1 adipocytes as described above. […] NBDG uptake was measured using a fluorescent microplate reader (Thermo Scientific Varioskan LUX Multimode Microplate Reader).
# [8] = test system: STZ-induced diabetic male mice; assay: Daily oral CYSTM1 in STZ-induced diabetic mice; type: in vivo, mouse; settings: vs saline
# Experimental: Turning to FIG. 7J, standard chow diet (STC) mice were injected with streptozotocin (STZ) to induce diabetes for five days and then treated with either CYSTM1 protein (1 mg/kg) or saline daily. The group of mice treated with saline were regarded as the control group.
# [9] = test system: 3T3-L1 adipocytes; assay: 2-NBDG glucose uptake in 3T3-L1 adipocytes; type: cell-based; settings: 3T3-L1 adipocytes, CYSTM1 1-1000 nM, 1 h
# Experimental: as §3
# [10] = test system: diet-induced obesity and diabetes mouse model; assay: Acute glucose tolerance test after i.p. injection or oral gavage of recombinant CYSTM1 in high-fat diet mice; type: in vivo; settings: 1 h before GTT, obese mice, vs PBS
# Experimental: In this example, an acute intraperitoneal (i.p.) glucose tolerance test (GTT) was performed using different administration methods of delivering recombinant CYSTM1 proteins. 8-week-old male C57BL/6J mice fed a high-fat diet for 12 weeks (diet-induced obesity and diabetes mouse model) were treated with different concentrations of CYSTM1 through i.p. injection (FIG. 3A-3C) or oral administration (FIGS. 3D-3F) for 1 h following a GTT by intraperitoneal injections of […]. Circulating CYSTM1 and insulin levels were determined by enzyme-linked immunosorbent assay (ELISA) (ImmunoDiagnostics, Hong Kong), and the glucose level was determined by a glucometer (Roche Diabetes Care, Indianapolis, IN, USA). […] As human and mouse CYSTM1 share high identity (89.4%) and similarity (90.4%), and human CYSTM1 appears to also lower circulating glucose in the db/db mice (a genetic mouse model of obesity and diabetes), it could be expected that human CYSTM1 may also function similarly with respect to human circulating glucose in an obese, diabetic human subject.
# [11] = i.p. injection of CYSTM1 (0.5 and 1 mg/kg BW)
# [12] = oral gavage of CYSTM1 1 mg/kg BW
Molecule,glucose levels (GTT) [1],insulin secretion [2],insulin secretion [3],insulin secretion induced by CYSTM1 in presence of exendin (9-39) [4],insulin secretion [5],"feeding blood glucose level ([6]; 1 mg/kg oral gavage once daily, HFD mice, vs saline)","fasting insulin concentration ([6]; day 10, 1 mg/kg oral gavage once daily, HFD mice, vs saline)","glucose homeostasis by IPGTT ([6]; day 20, 1 mg/kg oral gavage once daily, vs control HFD-fed mice)",glucose (2-NBDG) uptake [7],feeding blood glucose level ([8]; 1 mg/kg oral daily),"glucose regulation by IPGTT ([8]; day 15, 1 mg/kg oral daily)",glucose (2-NBDG) uptake [9],"circulating insulin [10, 11]","glucose levels (GTT) [10, 11]","circulating insulin [10, 12]","glucose levels (GTT) [10, 12]"
B1,lower glucose levels,–,–,–,–,–,–,–,–,–,–,–,–,–,–,–
B2,–,concentration-dependent increase in insulin secretion,concentration-dependent increase in insulin secretion,not affected by the presence of exendin (9-39),concentration-dependent increase in insulin secretion,significantly reduced feeding blood glucose level,decreased level of fasting insulin concentration,better glucose homeostasis,concentration-dependent increase,significantly lower feeding blood glucose level,protects from STZ-induced glucose dysregulation,concentration-dependent increase,increase circulating insulin,lower glucose levels,increase circulating insulin,lower glucose levels
